# Test results: paper PMC11630572
# Tests used:
# [1] = molecular target: recombinant spike ectodomain of SARS-CoV-2 Omicron subvariant BA.5 (SARS-CoV-2); test: cryo-EM structure; complexes of BA.5 or JN.1 spike ectodomain with Nanosota-9-His (0.8 uM); three Nanosota-9 on each trimeric spike, two of them crosslinking two RBDs (2:2 mode)
# [2] = molecular target: recombinant spike ectodomain of SARS-CoV-2 Omicron subvariant JN.1 (SARS-CoV-2); test: as above
Substance,stoichiometry N [1],stoichiometry N [2]
recombinant spike ectodomain of SARS-CoV-2 Omicron subvariant BA.5 (domain or fragment),3,–
recombinant spike ectodomain of SARS-CoV-2 Omicron subvariant JN.1 (domain or fragment),–,3
